# Target: Spike S1 & S2 ECD (SARS-CoV-2) (UniProt P0DTC2)
# Experiment: filter
# [1] = Y=Tyr-dU, p=Nap-dC, SB18T0.01, 37 C
sequence,measurement,setting,value
GGGANANNANGNGNRNGANNGNNNGGANG [OH-26874-29_192],Kd,"Y=Tyr-dU, p=Nap-dC, position 15 PP-dC, protein construct inferred",1000 nM
GGGANANNANGNGNNNGANNGNNNGGANG [26874-29_128],Kd,"Y=Tyr-dU, p=Nap-dC, position 8 2NE-dU, value curated as assigned, Kd/Kd_20 1656",500 nM
GGGANANNANGNGNNNGANNGNNNGGANG [26874-29_95],Kd,"PPdU at 23, other dU Tyr-dU, dC Nap-dC, SB18T0.01, 37 C",0.42 nM
GGGANANNANGNGHNNGANNGNNNGGANG [26874-29_100],Kd,"ThdU at 14 as printed (same as _102; position 10 probably meant), other dU Tyr-dU, dC Nap-dC, SB18T0.01, 37 C",0.49 nM
GGGANANNANGNGNNNGANNGNNNGGANG [26874-29_81],Kd,"PEdU at 10, other dU Tyr-dU, dC Nap-dC, SB18T0.01, 37 C",0.16 nM
GGGANANNANGNGNNNGANNGNNNGGANG [26874-29_87],Kd,"PPdU at 5, other dU Tyr-dU, dC Nap-dC, SB18T0.01, 37 C",0.25 nM
GGGANANNANGNGNNNGANNGNNNGGANG [26874-29_94],Kd,"BFdU at 23, other dU Tyr-dU, dC Nap-dC, SB18T0.01, 37 C",0.48 nM
GGGANANNANGNGNNNGANNGNNNGGANG [26874-29_49],Kd,"NapdU at 8, other dU Tyr-dU, dC Nap-dC, SB18T0.01, 37 C",0.4 nM
GGGANANNANGNGNNNGANNGNNNGGANG [26874-29_118],Kd,"BTdU at 8, other dU Tyr-dU, dC Nap-dC, SB18T0.01, 37 C",0.39 nM
GGGANANNANGNGNNNGANNGNNNGGANG [26874-29_106],Kd,"MOEdU at 5, other dU Tyr-dU, dC Nap-dC, SB18T0.01, 37 C",0.66 nM
GGGANANNANGNGNNNGANNGNNNGGANG [26874-29_78],Kd,"NEdU at 8, other dU Tyr-dU, dC Nap-dC, SB18T0.01, 37 C",0.24 nM
GGGANANNANGNGNNNGANNGNNNGGANG [26874-29_114],Kd,"MOEdU at 23, other dU Tyr-dU, dC Nap-dC, SB18T0.01, 37 C",0.81 nM
GGGANANNANGNGNNNGANNGNNNGGANG [26874-29_119],Kd,"Y=Tyr-dU, p=Nap-dC, position 8 POP-dU, value curated as assigned, Kd/Kd_20 1656",500 nM
GGGANANNANGNGNNNGANNGNNNGGANG [26874-29_123],Kd,"Y=Tyr-dU, p=Nap-dC, position 14 POP-dU, value curated as assigned, Kd/Kd_20 1656",500 nM
GGGANANNANGNGNNNGANNGNNNGGANG [26874-29_125],Kd,"POPdU at 23, other dU Tyr-dU, dC Nap-dC, low plateau",0.37 nM
GGGANANNANGNGNNNGANNGNNNGGANG [26874-29_153],Kd,"Y=Tyr-dU, p=Nap-dC, position 14 BPE-dU, Kd/Kd_20 0.28",0.11 nM
GGGANANNANGNGNNNGANNGNNNGGANG [26874-29_63],Kd,"BndU at 14, other dU Tyr-dU, dC Nap-dC, SB18T0.01, 37 C",0.16 nM
GGGANANNANGNGNNNGANNGNNNGGANG [26874-29_48],Kd,"FBndU at 8, other dU Tyr-dU, dC Nap-dC, SB18T0.01, 37 C",0.26 nM
GGGANANNANGNGNNNGANNGNNNGGANG [26874-29_61],Kd,"BndU at 10, other dU Tyr-dU, dC Nap-dC, SB18T0.01, 37 C",0.31 nM
GGGANANNANGNGNNNGANNGNNNGGANG [26874-29_82],Kd,"NEdU at 14, other dU Tyr-dU, dC Nap-dC, SB18T0.01, 37 C",0.18 nM
GGGANANNANGNGNNNGANNGNNNGGANG [26874-29_56],Kd,"TrpdU at 5, other dU Tyr-dU, dC Nap-dC, SB18T0.01, 37 C",0.54 nM
GGGANANNANGNGNNNGANNGNNNGGANG [26874-29_151],Kd,"BPEdU at 10, other dU Tyr-dU, dC Nap-dC, SB18T0.01, 37 C",0.78 nM
GGGANANNANGNGNNNGANNGNNNGGANG [26874-29_91],Kd,"BFdU at 14 (Table 6B says PPdU), other dU Tyr-dU, dC Nap-dC, SB18T0.01, 37 C",0.17 nM
GGGANANNANGNGNNNGANNGNNNGGANG [26874-29_50],Kd,"FBndU at 10, other dU Tyr-dU, dC Nap-dC, SB18T0.01, 37 C",0.31 nM
GGGANANNANGNGNNNGANNGNNNGGANG [26874-29_138],Kd,"iBudU at 8, other dU Tyr-dU, dC Nap-dC, SB18T0.01, 37 C",0.59 nM
GGGANANNANGNGNNNGANNGNNNGGANG [OH-26874-29_315],Kd,"Y=Tyr-dU, p=Nap-dC, position 12 PBn-dC, protein construct inferred",0.16 nM
GGGANANNANGNGNNNGANNGNNNGGANG [26874-29_144],Kd,"iBudU at 23, other dU Tyr-dU, dC Nap-dC, SB18T0.01, 37 C",0.57 nM
GGGANANNANGNGNNNGANNGNNNGGANG [26874-29_92],Kd,"PPdU at 10 (Table 6B says BFdU), other dU Tyr-dU, dC Nap-dC, SB18T0.01, 37 C",0.18 nM
GGGANANNANGNGHNNGANNGNNNGGANG [26874-29_102],Kd,"ThdU at 14, other dU Tyr-dU, dC Nap-dC, SB18T0.01, 37 C",0.45 nM
GGGANANNANGNGNNNGANNGNNNGGANG [26874-29_109],Kd,"2NapdU at 8, other dU Tyr-dU, dC Nap-dC, SB18T0.01, 37 C",0.48 nM
GGGANANNANGNGNNNGANNGNNNGGANG [26874-29_140],Kd,"iBudU at 10, other dU Tyr-dU, dC Nap-dC, SB18T0.01, 37 C",0.47 nM
GGGANANNANGNGNNNGANNGNNNGGANG [26874-29_68],Kd,"PBndU at 8, other dU Tyr-dU, dC Nap-dC, SB18T0.01, 37 C",0.21 nM
GGGANANHANGNGNNNGANNGNNNGGANG [26874-29_98],Kd,"ThdU at 8, other dU Tyr-dU, dC Nap-dC, SB18T0.01, 37 C",0.22 nM
NANNANGNGNNNGANNGNNNGGANGG [26874-29_22],Kd,[1],1.4 nM
GGGANANNANGNGNNNGANNGNNNGGANG [OH-26874-29_331],Kd,"Y=Tyr-dU, p=Nap-dC, position 28 DPP-dC, protein construct inferred",0.13 nM
GGGANANNANGNGNNNGANNGNNNGGANG [26874-29_130],Kd,"2NEdU at 10, other dU Tyr-dU, dC Nap-dC, SB18T0.01, 37 C",0.28 nM
GGGANANNANGNGNNNGANNGNNNGGANG [26874-29_124],Kd,"BTdU at 23, other dU Tyr-dU, dC Nap-dC, SB18T0.01, 37 C",0.64 nM
GGGANANNANGNGNNNGANNGNNNGGANG [26874-29_122],Kd,"BTdU at 14, other dU Tyr-dU, dC Nap-dC, SB18T0.01, 37 C",0.16 nM
GGGANANNANGNGNNNGANNGNNNGGANG [26874-29_134],Kd,"Y=Tyr-dU, p=Nap-dC, position 23 2NE-dU, very low plateau, faint spots",0.12 nM
NANNANGNGNNNGANNGNNNGGANG [26874-29_24],Kd,[1],2.1 nM
GGGANANNANGNGNNNGANNGNNNGGANG [26874-29_79],Kd,"PEdU at 8, other dU Tyr-dU, dC Nap-dC, SB18T0.01, 37 C",0.17 nM
GGGANANNANGNGNNNGANNGNNNGGANG [26874-29_120],Kd,"BTdU at 10, other dU Tyr-dU, dC Nap-dC, SB18T0.01, 37 C",0.24 nM
GGGANANNANGNGNNNGANNGNNNGGANG [26874-29_83],Kd,"PEdU at 14, other dU Tyr-dU, dC Nap-dC, SB18T0.01, 37 C",0.19 nM
GGGANANNANGNGNNNGANNGNNNGGANG [26874-29_51],Kd,"NapdU at 10, other dU Tyr-dU, dC Nap-dC, SB18T0.01, 37 C",0.36 nM
GGGANANNANGNGNNNGANNGNNNGGANG [26874-29_89],Kd,"PPdU at 8, other dU Tyr-dU, dC Nap-dC, SB18T0.01, 37 C",0.2 nM
GGGANANNANGNGNNNGANNGNNNGGANG [OH-26874-29_332],Kd,"Y=Tyr-dU, p=Nap-dC, position 7 DCPE-dC, protein construct inferred",0.13 nM
GGGANANNANGNGNNNGANNGNNNGGANG [26874-29_54],Kd,"FBndU at 23, other dU Tyr-dU, dC Nap-dC, SB18T0.01, 37 C",0.21 nM
GGGANANNANGNGNNNGANNGNNNGGANG [26874-29_149],Kd,"BPEdU at 8, other dU Tyr-dU, dC Nap-dC, low plateau",0.47 nM
GGGANANNANGNGNNNGANNGNNNGGANG [26874-29_88],Kd,"BFdU at 8, other dU Tyr-dU, dC Nap-dC, SB18T0.01, 37 C",0.19 nM
GGGANANNANGNGNNNGANNGNNNGGANG [26874-29_108],Kd,"MOEdU at 8, other dU Tyr-dU, dC Nap-dC, SB18T0.01, 37 C",0.72 nM
GGGANANNANGNGNNNGANNGNNNGGANG [26874-29_146],Kd,"MBndU at 5, other dU Tyr-dU, dC Nap-dC, low plateau",0.61 nM
GGGACANNANGNGNNNGANNGNNNGGANG [26874-29_127],Kd,"c3 (not defined) at 5, other dU Tyr-dU, dC Nap-dC, SB18T0.01, 37 C",0.28 nM
GGGANANNANGNGNNNGANNGNNNGGANG [26874-29_126],Kd,"2NEdU at 5, other dU Tyr-dU, dC Nap-dC, low plateau",0.65 nM
GGGANANNANGNGNNNGANNGNNNGGANG [26874-29_62],Kd,"Y=Tyr-dU, p=Nap-dC, position 14 Trp-dU, Kd/Kd_20 0.30",0.13 nM
GGGANANNANGNGNNNGANNGNNNGGANG [26874-29_80],Kd,"NEdU at 10, other dU Tyr-dU, dC Nap-dC, SB18T0.01, 37 C",0.16 nM
GGGANANNANGNGNNNGANNGNNNGGANG [26874-29_53],Kd,"NapdU at 14, other dU Tyr-dU, dC Nap-dC, SB18T0.01, 37 C",0.2 nM
GGGANANNANGNGNNNGANNGNNNGGANG [26874-29_97],Kd,"ThrdU at 5, other dU Tyr-dU, dC Nap-dC, SB18T0.01, 37 C",0.29 nM
GGGANANNANGNGNNNGANNGNNNGGANG [26874-29_110],Kd,"MOEdU at 10, other dU Tyr-dU, dC Nap-dC, SB18T0.01, 37 C",0.43 nM
GGANANNANGNGNNNGANNGNNNGGANG [26874-29_21],Kd,[1],2.2 nM
GGGANANNANGNGNNNGANNGNNNGGANG [26874-29_132],Kd,"2NEdU at 14, other dU Tyr-dU, dC Nap-dC, SB18T0.01, 37 C",0.27 nM
GGGANANNANGNGNNNGANNGNNNGGANG [26874-29_103],Kd,"ThrdU at 14, other dU Tyr-dU, dC Nap-dC, SB18T0.01, 37 C",0.49 nM
GGGANANNANGNGNNNGANNGNNNGGANG [26874-29_90],Kd,"Y=Tyr-dU, p=Nap-dC, position 10 BF-dU, Kd/Kd_20 0.33",0.14 nM
GGGANANNANGNGNNNGANNGNNNGGANG [26874-29_86],Kd,"BFdU at 5, other dU Tyr-dU, dC Nap-dC, SB18T0.01, 37 C",0.21 nM
ANNANGNGNNNGANNGNNNGGANGG [26874-29_23],Kd,[1],1.6 nM
